One experiment concerns the target T1, loop2 hCCR4-hCCR8 (Homo sapiens, UniProt P51685, A175Y/D178R/F186K/F197L/F200L/G179N/I196V/K193T/K201E/L181T/L192T/M202I/N188S/N199S/Q173T/Q182Y/Q189L/Q190N/S176T/S185T/T191S/T198S/V174C/V180H/Y172S/Y184K).
T1 construct: expressed in transfected cells; host or cells: Expi293 cells (method similar to that for the wild type)
The experiment can be described thus: Antigen-binding test, chimera. The note with it: 5, 0.5 and 0.05 ug/mL, in comparison to wild-type hCCR8.

The next experiment deals with T2, hCCR8 (K35A) (Homo sapiens, UniProt P51685, K35A).
T2 construct: expressed in transfected cells; host or cells: Expi293 cells (method similar to that for the wild type)
The experiment can be described thus: Antigen-binding test, human CCR8 point mutant. To be noted: in comparison to wild-type hCCR8. From the text: (§1) Further, to analyze in more detail the N-terminal region that is an epitope region common to all clones having strong neutralization, the human CCR8 point mutants shown in Table 2 were produced. […] It is thus considered that the neutralizing antibodies recognize Y at position 17. In addition, although clone No. 8F7 is only shown in Table 2, plural other neutralizing antibodies had reduced binding activity to the mutant in which I at position 20 of human CCR8 is substituted with A (hCCR8 (I20A)). It is thus considered that some neutralizing antibodies have stereo-structural recognition to bind to isoleucine at position 20.

In the next experiment the target is T3, mouse CCR8 (Mus musculus, UniProt P56484).
T3 construct: expressed in transfected cells; host or cells: Expi293 cells, pcDNA 3.4 vector, transient
T3 sequence (P56484 1-353): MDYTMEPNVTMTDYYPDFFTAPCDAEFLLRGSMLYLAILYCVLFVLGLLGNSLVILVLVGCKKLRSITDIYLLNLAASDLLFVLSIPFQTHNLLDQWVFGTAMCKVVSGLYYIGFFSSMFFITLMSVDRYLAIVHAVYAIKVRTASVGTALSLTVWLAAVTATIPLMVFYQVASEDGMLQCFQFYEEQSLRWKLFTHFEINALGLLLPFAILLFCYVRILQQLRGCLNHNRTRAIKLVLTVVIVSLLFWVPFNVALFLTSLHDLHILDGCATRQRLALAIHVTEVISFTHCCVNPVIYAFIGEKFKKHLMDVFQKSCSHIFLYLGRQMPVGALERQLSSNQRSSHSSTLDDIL
Put plainly: Antigen-binding test on transiently expressing Expi293 cells. Also noted: key: an antibody having significantly reduced binding activity was indicated as A; an antibody having binding activity of the detection limit or less was indicated as x; The blank column means that it exhibits the same binding activity as the wild-type human CCR8 (hCCR8). To be noted: 5, 0.5 and 0.05 ug/mL, in comparison to wild-type hCCR8. The source says:
(§2) The gene encoding the full length of human CCR8 (UniProtKB/Swiss-Prot: P51685, SEQ ID NO: 1), the gene encoding the full length of human CCR4 (UniProtKB/Swiss-Prot: P51679, SEQ ID NO: 48) and the gene encoding the full length of mouse CCR8 (UniProtKB/Swiss-Prot: P56484, SEQ ID NO: 39) were cloned into pcDNA 3.4 vectors, respectively. These vectors were used for transfection to produce Expi293 cells transiently expressing human CCR8, human CCR4, or mouse CCR8. These cells were reacted with a dilution series of the purified antibodies of each clone, and the binding properties thereof were evaluated by detection with Alexa488-labeled anti-mouse IgG antibody (manufactured by Thermo Fisher Scientific). As a result, every antibody bound to human CCR8, but not to human CCR4 and mouse CCR8 at all.

The next experiment deals with T4, human CCR4 (Homo sapiens, UniProt P51679).
T4 construct: expressed in transfected cells; host or cells: Expi293 cells, pcDNA 3.4 vector, transient
T4 sequence (P51679 1-360): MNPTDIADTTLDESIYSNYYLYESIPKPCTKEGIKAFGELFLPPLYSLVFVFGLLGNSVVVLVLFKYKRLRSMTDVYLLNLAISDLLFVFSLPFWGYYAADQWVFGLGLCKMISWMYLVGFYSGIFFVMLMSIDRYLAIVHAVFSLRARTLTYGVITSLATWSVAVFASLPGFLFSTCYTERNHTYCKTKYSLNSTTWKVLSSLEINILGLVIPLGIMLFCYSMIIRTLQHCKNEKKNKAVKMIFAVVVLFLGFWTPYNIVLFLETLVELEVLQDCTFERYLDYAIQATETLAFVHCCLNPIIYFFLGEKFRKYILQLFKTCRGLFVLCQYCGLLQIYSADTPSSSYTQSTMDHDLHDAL
The description is as above. More on the design: key: an antibody having significantly reduced binding activity was indicated as A; an antibody having binding activity of the detection limit or less was indicated as x; The blank column means that it exhibits the same binding activity as the wild-type human CCR8 (hCCR8). To be noted: 5, 0.5 and 0.05 ug/mL, in comparison to wild-type hCCR8.
From the text: as §2

A further experiment concerns the target T5, hCCR8 (I20A) (Homo sapiens, UniProt P51685, I20A).
T5 construct: expressed in transfected cells; host or cells: Expi293 cells (method similar to that for the wild type)
Put plainly: Antigen-binding test, human CCR8 point mutant. To be noted: in comparison to wild-type hCCR8.
From the text: as §1

The target of another experiment is T6, hCCR8 (I30A) (Homo sapiens, UniProt P51685, I30A).
T6 construct: expressed in transfected cells; host or cells: Expi293 cells (method similar to that for the wild type)
The experiment can be described thus: Antigen-binding test, human CCR8 point mutant. The note with it: in comparison to wild-type hCCR8.
From the text: as §1

B1: 8F7: mouse anti-human CCR8 neutralizing antibody; light chain SEQ ID NO: 33, heavy chain SEQ ID NO: 34 (antibody, V domains shown)
VH: EVQLVESGGRLVQPKRSLKLSCAASGFTFNPYAMYWIRQAPGQGLEWVARIRSKSNNYATYYADSVKDRFTISRDDSQSMLYLQMNNLKTEDTAMYYCVRGHQGTMDYWGQGTSVTVSS
VL: DIVMTQAAPSVPVTPGESVSISCRSSKSLLHSNGNTYLYWFLQRPGQSPQLLTYRMSNLASGVPDRFSGSGSGTAFTLRISRVEAEDVGVYYCMQHLEYPFTFGGGTKLEIKR
modifications: 8F7 VH; 8F7 VL
B1: the “binding activity, loop2 hCCR4-hCCR8” value with loop2 hCCR4-hCCR8 is given as “Δ”. The “binding activity, hCCR8 (K35A)” value with hCCR8 (K35A) is listed as “Δ”. Also, the “binding activity, mCCR8” value with mouse CCR8 was “x”. Besides, the “binding activity, hCCR4” value with human CCR4 is given as “x”. Moreover, the “binding activity, hCCR8 (I20A)” value with hCCR8 (I20A) is “Δ”. Further, the “binding activity, hCCR8 (I30A)” value with hCCR8 (I30A) is on record as “Δ”.
